Measurements from patent US20140199706A1.
Where a chain is given by its changes, count along the chain named. Names and notes keep the numbering of the source. Like-named read-outs stand apart in the source and are kept apart here. Values belong to the molecule of their own block, whether it stands above or below them.

Key:
[1] = system: yeast proteasome (26S)
[2] = target: yeast proteasome (26S) (S. cerevisiae (yeast)); experiment: cell-based or functional assay
[3] = target: proteasome regulatory particle (RP) purified from a ubp6Δ strain
[4] = target: yeast proteasome (26S); remark: listed apart in the source

Molecule: Ubp6-ublΔ
cyclin B degradation assay [1]: Deletion of the Ubl domain rendered Ubp6 non-inhibitory in the cyclin B degradation assay (FIG. 4B)

inhibition of degradation of ub-cyclin B (quantitative mass spectrometry, 20-minute incubation) [2]: 70%
B1: Ubp6 (protein)
chain: MSGETFEFNIRHSGKVYPITLSTDATSADLKSKAEELTQVPSARQKYMVKGGLSGEESIKIYPLIKPGSTVMLLGTPDANLISKPAKKNNFIEDLAPEQQVQQFAQLPVGFKNMGNTCYLNATLQALYRVNDLRDMILNYNPSQGVSNSGAQDEEIHKQIVIEMKRCFENLQNKSFKSVLPIVLLNTLRKCYPQFAERDSQGGFYKQQDAEELFTQLFHSMSIVFGDKFSEDFRIQFKTTIKDTANDNDITVKENESDSKLQCHISGTTNFMRNGLLEGLNEKIEKRSDLTGANSIYSVEKKISRLPKFLTVQYVRFFWKRSTNKKSKILRKVVFPFQLDVADMLTPEYAAEKVKVRDELRKVEKEKNEKEREIKRRKFDPSSSENVMTPREQYETQVALNESEKDQWLEEYKKHFPPNLEKGENPSCVYNLIGVITHQGANSESGHYQAFIRDELDENKWYKFNDDKVSVVEKEKIESLAGGGESDSALILMYKGFGL
ubiquitin chain shortening of ub-cyclin B conjugates [3]: addition of purified Ubp6 to RP resulted in chain shortening, although to a lesser extent than with 26S proteasomes (FIG. 6A) | cyclin B degradation by ubp6Δ proteasomes after add-back of recombinant Ubp6 [4]: a marked inhibition of cyclin B degradation (FIG. 1F) was observed | deubiquitination of cyclin B [4]: when Ubp6 is incubated in the presence of cyclin B, but without proteasomes, no deubiquitination of cyclin B is observed (FIG. 4D)

inhibition of degradation of ub-cyclin B (quantitative mass spectrometry, 20-minute incubation) [2]: 70%
B2: Ubp6-C118A (protein)
chain: B1 chain with C118A
cyclin B degradation assay [4]: a catalytically inactive point mutant of Ubp6 (Ubp6-C118A) proved competent for inhibition (FIG. 4B)
